{
  "source": "paper PMC7659714",
  "about": "(The Journal of Cell Biology, 2020)",
  "binders": {"B1": {"name": "CPT1CΔCterm-FLAG (truncated CPT1C, last 39 aa replaced by FLAG) expressed in HEK cells for co-immunoprecipitation (domain or fragment, UniProt Q8BGD5 1-759, looked up)", "chain": "MAEAHQASSLLSSLSSDGAEVELSSPVWQEIYLCALRSWKRHLWRVWNDFLAGVVPATPLSWLFLFSTIQLACLLQLDPSLGLMEKIKELLPDWGGQHHQLQGFLSAAVFASCLWGALIFTLHVALRLLLSHHGWLLEPHGAMSSPTKTWLALVRIFSGRHPRLFSFQRALPRQPVPSAQETVRKYLESVRPVLGDDAFDRATALANDFLRLHAPRLQLYLQLKSWCTSNYVSDWWEEFVYLRSRGSLINSTYYMMDFLYVTPTPLQAARAGNAVHTLLLYRHLLNRQEISPTLLMGMRPLCSAQYERMFNTTRIPGVEKDHLRHLQDSRHVAVFHRGRFFRVGTHSPNGLLSPRALEQQFQDILDDPSPACPLEEHLAALTAAPRSMWAQVRESVKTHAATALEAVEGAAFFVSLDSEPAGLTREDPAASLDAYAHALLAGRGHDRWFDKSFTLIVFSNGKLGLSVEHSWADCPVSGHLWEFTLATECFQLGYATDGHCKGHPDPTLPQPQRLQWDLPEQIQPSISLALRGAKTLSGNIDCHVFPFSHFGKSFIKCCHVSSDSFIQLVLQLAHFRDRGQFCLTYESAMTRLFLEGRTETVRSCTREACQFVRAMDNKETDQHCLALFRVAVDKHQALLKAAMSGQGIDRHLFALYIMSRLLHMQSPFLTQVQSQQWLLSTSQVPVQQTHLIDVHNYPDYVSSGGGFGPAHDHGYGISYIFMGENAITFHISSKKSSTETDSHRLGQHIENALLDVASL"}, "B2": {"name": "YFP-CPT1C, wild type, for FRET (CPT1C-SYFP2) (natural protein, human, UniProt Q8TCG5 1-803, looked up)", "chain": "MAEAHQAVGFRPSLTSDGAEVELSAPVLQEIYLSGLRSWKRHLSRFWNDFLTGVFPASPLSWLFLFSAIQLAWFLQLDPSLGLMEKIKELLPDWGGQHHGLRGVLAAALFASCLWGALIFTLHVALRLLLSYHGWLLEPHGAMSSPTKTWLALVRIFSGRHPMLFSYQRSLPRQPVPSVQDTVRKYLESVRPILSDEDFDWTAVLAQEFLRLQASLLQWYLRLKSWWASNYVSDWWEEFVYLRSRNPLMVNSNYYMMDFLYVTPTPLQAARAGNAVHALLLYRHRLNRQEIPPTLLMGMRPLCSAQYEKIFNTTRIPGVQKDYIRHLHDSQHVAVFHRGRFFRMGTHSRNSLLSPRALEQQFQRILDDPSPACPHEEHLAALTAAPRGTWAQVRTSLKTQAAEALEAVEGAAFFVSLDAEPAGLTREDPAASLDAYAHALLAGRGHDRWFDKSFTLIVFSNGKLGLSVEHSWADCPISGHMWEFTLATECFQLGYSTDGHCKGHPDPTLPQPQRLQWDLPDQIHSSISLALRGAKILSENVDCHVVPFSLFGKSFIRRCHLSSDSFIQIALQLAHFRDRGQFCLTYESAMTRLFLEGRTETVRSCTREACNFVRAMEDKEKTDPQCLALFRVAVDKHQALLKAAMSGQGVDRHLFALYIVSRFLHLQSPFLTQVHSEQWQLSTSQIPVQQMHLFDVHNYPDYVSSGGGFGPADDHGYGVSYIFMGDGMITFHISSKKSSTKTDSHRLGQHIEDALLDVASLFQAGQHFKRRFRGSGKENSRHRCGFLSRQTGASKASMTSTDF"}, "B3": {"name": "CPT1CM589S (malonyl-CoA-insensitive CPT1C) expressed in HEK cells for co-immunoprecipitation (natural protein, UniProt Q8BGD5 1-798, looked up)", "chain": "MAEAHQASSLLSSLSSDGAEVELSSPVWQEIYLCALRSWKRHLWRVWNDFLAGVVPATPLSWLFLFSTIQLACLLQLDPSLGLMEKIKELLPDWGGQHHQLQGFLSAAVFASCLWGALIFTLHVALRLLLSHHGWLLEPHGAMSSPTKTWLALVRIFSGRHPRLFSFQRALPRQPVPSAQETVRKYLESVRPVLGDDAFDRATALANDFLRLHAPRLQLYLQLKSWCTSNYVSDWWEEFVYLRSRGSLINSTYYMMDFLYVTPTPLQAARAGNAVHTLLLYRHLLNRQEISPTLLMGMRPLCSAQYERMFNTTRIPGVEKDHLRHLQDSRHVAVFHRGRFFRVGTHSPNGLLSPRALEQQFQDILDDPSPACPLEEHLAALTAAPRSMWAQVRESVKTHAATALEAVEGAAFFVSLDSEPAGLTREDPAASLDAYAHALLAGRGHDRWFDKSFTLIVFSNGKLGLSVEHSWADCPVSGHLWEFTLATECFQLGYATDGHCKGHPDPTLPQPQRLQWDLPEQIQPSISLALRGAKTLSGNIDCHVFPFSHFGKSFIKCCHVSSDSFIQLVLQLAHFRDRGQFCLTYESASTRLFLEGRTETVRSCTREACQFVRAMDNKETDQHCLALFRVAVDKHQALLKAAMSGQGIDRHLFALYIMSRLLHMQSPFLTQVQSQQWLLSTSQVPVQQTHLIDVHNYPDYVSSGGGFGPAHDHGYGISYIFMGENAITFHISSKKSSTETDSHRLGQHIENALLDVASLFRVGQHFKRQFRGENSDYRYNFLSCKTVDPNTPTSSTNL"}, "B4": {"name": "YFP-CPT1CM589S for FRET (natural protein, UniProt Q8BGD5 1-798, looked up)", "chain": "B3 chain"}},
  "key": {"[1]": {"biological_target": "T1, GluA1 expressed in HEK cells (mTurquoise2-GluA1) (mouse, UniProt P23818 19-907)", "T1 sequence (P23818 19-907)": "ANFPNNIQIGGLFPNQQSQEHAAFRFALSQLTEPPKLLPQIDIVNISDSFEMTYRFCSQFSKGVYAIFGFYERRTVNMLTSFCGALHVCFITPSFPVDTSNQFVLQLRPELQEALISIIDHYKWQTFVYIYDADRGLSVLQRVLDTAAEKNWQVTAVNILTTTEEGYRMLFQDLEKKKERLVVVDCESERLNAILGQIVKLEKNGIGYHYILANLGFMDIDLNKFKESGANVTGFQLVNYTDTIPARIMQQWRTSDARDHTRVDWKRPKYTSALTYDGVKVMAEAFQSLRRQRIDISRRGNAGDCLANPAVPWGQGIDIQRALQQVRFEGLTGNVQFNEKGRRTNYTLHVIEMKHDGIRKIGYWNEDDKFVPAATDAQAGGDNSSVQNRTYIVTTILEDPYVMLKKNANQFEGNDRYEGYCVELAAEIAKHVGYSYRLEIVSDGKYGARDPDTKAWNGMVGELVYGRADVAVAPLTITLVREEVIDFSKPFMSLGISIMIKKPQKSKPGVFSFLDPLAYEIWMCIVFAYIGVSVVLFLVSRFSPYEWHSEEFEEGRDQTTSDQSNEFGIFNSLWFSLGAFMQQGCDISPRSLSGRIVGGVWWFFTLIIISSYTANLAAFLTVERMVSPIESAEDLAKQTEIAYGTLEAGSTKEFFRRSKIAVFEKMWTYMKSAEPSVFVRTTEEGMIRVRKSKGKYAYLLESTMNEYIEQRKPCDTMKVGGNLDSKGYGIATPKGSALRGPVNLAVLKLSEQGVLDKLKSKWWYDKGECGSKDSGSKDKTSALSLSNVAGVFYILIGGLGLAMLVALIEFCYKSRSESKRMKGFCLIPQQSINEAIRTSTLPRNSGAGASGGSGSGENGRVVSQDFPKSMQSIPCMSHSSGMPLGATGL", "experiment": "co-IP"}, "[2]": {"biological_target": "T1, GluA1 expressed in HEK cells …", "experiment": "FRET or BRET"}},
  "data": [
    {"binder": "B1", "values": [
      {"measurement": "coimmunoprecipitated CPT1C versus immunoprecipitated GluA1, relative to WT CPT1C", "setting": "[1]", "value": "0.12 ratio to GluA1 + WT CPT1C (1.00)"}
    ]},
    {"binder": "B2", "values": [
      {"measurement": "percentage of FRET efficiency", "setting": "[2]", "value": 8.7, "unit": "%"}
    ]},
    {"binder": "B3", "values": [
      {"measurement": "coimmunoprecipitated CPT1C versus immunoprecipitated GluA1, relative to WT CPT1C", "setting": "[1]", "value": "0.85 ratio to GluA1 + WT CPT1C (1.00)"}
    ]},
    {"binder": "B4", "values": [
      {"measurement": "percentage of FRET efficiency", "setting": "[2]", "value": 9.51, "unit": "%"}
    ]}
  ]
}
